Laboratory results from publication PMC6152271.

Biological target: recombinant human soluble catechol-O-methyltransferase (human) (UniProt P21964)

IC50 of inhibition of COMT activity (methyl transfer from 14C-SAM to DBA): 1.6 µM
Substance: bovine lactoferrin (natural protein)
